Paper PMC9517163

Molecular target: minke whale ACE2, mFc-tagged (minke whale)
Assay: SPR

SARS-CoV-2 Omicron BA.1 receptor-binding domain (RBD) (from UniProt P0DTC2) (domain or fragment)
Kd: 0.254 µM
